Test results taken from the DeepSol protein solubility set.

Assay: soluble on expression in E. coli; label from the status in PepcDB or PDB records
With “MVELVISPSLTVNSDCLDKLKFNRADAAVWTLSDRQGITKSAPLRVSQLFSRSCPRVLPRQPSTAMAAYGQTQYSAGIQQATPYTAYPPPAQAYGIPSFSTSPTGQSPYTYQMHGTTGFYQGGNGLGNAAGFGSVHQDYPSYPGFPQSQYPQYYGSSYNPPYVPASSICPSPLSTSTYVLQEASHNVPNQSSESLAGEYNTHNGPSTPAKEGDTDRPHRASDGKLRGRSKRSSDPSPAGDNEIERVFVWDLDETIIIFHSLLTGTFASRYGKDTTTSVRIGLMMEEMIFNLADTHLFFNDLEDCDQIHVDDVSSDDNGQDLSTYNFSADGFHSSAPGANLCLGSGVHGGVDWMRKLAFRYRRVKEMYNTYKNNVGGLIGTPKRETWLQLRAELEALTDLWLTHSLKALNLINSRPNCVNVLVTTTQLIPALAKVLLYGLGSVFPIENIYSATKTGKESCFERIMQRFGRKAVYVVIGDGVEEEQGAKKHNMPFWRISCHADLEALRHALELEYL” the “soluble on expression in E. coli” value was “not soluble”. In the case of “MIMEHEYRLEVRGYELDSFGHVNNAVYLNYLEAARWDLCSKLNLTDYNESNELFIVVIETNIKYIRELKLFDKVLIKTELTYEDDYLIFKHNIYNEVTKRKASVAKSKMVLVSKQRIIYEIPQFIKDKLDICAYGLEHHHHHH”, the “soluble on expression in E. coli” value is reported as “not soluble”. For “MAHHHHHHMKENYMIRHLFKKYGLKCYNSMSKGLLSNIRNGNSIVLYEKNVNKNLMNLLYKKHYNTYKNRVFNSAMYNNTPSNYMNNPENNNMNHLQNNSNYKYENPNNYYQPKYNNNLNNETNENNTTYQYFSIFGSTAMCLIKPIFPDYITNKNKVTIYGKGGFQFVFMRKQSNSNKYDKNNKMNIFIKINSLSNVLSLNDVEKLKNPIIIKGSNNNYLTIDKHKEKKDHIVIKYKYQPSNSPENNFNDMNNMDTDINENMIINDVNDEKRNNFEELHVSFSFSEFLLFQKAANLLLPQLIGWAKQY”, the “soluble on expression in E. coli” value was “not soluble”. For “MSLPVFSFEEPTGPHRVGTKLYHWVDHQRNEPYSKNPNDRRELMVQIWYPAAEKSKGDPEPYIRNINELSKGLEKTLSIPAFAFSHMELVKSHSFMDLQLSDSENHYPILLFSHGFNGFRNQNTFQVEELASQGYIVLSIDHTFDAAATVFPGGRTAYVQPINLTDEGDSHIKLWEEDVSFVLNQIEKLNENDETGFFTGRLDTSRIGMFGHSYGGATAAQILAKDSRVKAAINMDGTLYGEILPESGIGKPFLLMNAEEPDEADPFEVRERYGRGLAGGGMSMVIPHTDHTSFTDLHLFSPLLQSPGENPKEVHRIINEFSLAFFDQYVKQKDDGSTLKRLITQYPEVNFKINREGHHHHHH”, the “soluble on expression in E. coli” value was “soluble”. In the case of “MPTSSTPPIVYETDLEPIYYQDCYCHKELVFCKNWKFGGEIFKYNSSGTNSSIRRVQFDCCVYKDQEIDEEMSEKVKTFKGTLDPRQVVQNNCFQHLSPLYSKFCEHYGHMIGFFWNSLKDTVMAYDIADGLFQETKDCGCCLFHKDVYLTNHIFFEKSHRDEYGQTIICMDINWHTKEHGKMSIFFNSQGFFGEYRWNRVAQCFKLMKQLDVKTTEYEVADRTDDEKNWSSFSYDAIHFLEQEYRKTKYISSTDCQKISEKIHLDEELIEKWFRARRATSKREANSNEDIFTSQYQQTKLTMKDGTEGYFLRKNHEYFKKIVVTVGFSDGSVKPCVWIEKISEYQIIDQETWRLKFENSRVMAIDAEAREQVHRQRKLNSNEKRKEEEAENEQEKLFKEMAELEIQNYRILPNSSDKRLEEHELKTQSSTLPKPCAHAQAQAHAQAQAHAQAHETNDNWPKLMTELFRALLQGQSLTQQHMQRLVHLRTQPDFNRRSYAGHELTAMEMEALKQLLNLLNGKEMPTGKKEEVEGSGLTISEAHGTVGSPMLIEKKEELEGSLEHQPTMANEEIDQNLKEETTTKPEYRKKLRMSKRKQNELLQKLWLKEKNTENTHAEKTNQEKKLTENAVQEQLEQMMKMIQEERRAADSKNLKLEQMVLEMKDKLDAQETRIKELEEVIKSDKNAKKGEQLTDPTEPQYTEAPNAEVGHKSNISSSIGNDVDLLEDDSGED”, the “soluble on expression in E. coli” value is reported as “not soluble”. In the case of “QALASDSEEADEVPEWLREGEFVTVGAHKTGVVRYVGPADFQEGTWVGVELDLPSGKNDGSIGGKQYFRCNPGYGLLVRPSRVRRAT”, the “soluble on expression in E. coli” value is reported as “soluble”. For “SGANISGGSPEFDRNDDVYSRKLRLVDLPENCVALIMTRLDPPEICRLARLNRMSRRASSADFIWESKLPANYRVIAHKVFDEITLTKLIKKDLYAKLSQPNLFDDGTKELWIDKNTGRLCLSISSKALRITGIDDRRYWSHIPTDESRFQSAAYVQQIWWFEVGGEFEIQFPSGTYSLFFRIQLGKTSKRLGRRICNSEHIHGWDIKPVRFQLATSDNQQAVSLCYLNNNPGSWSHYHVGDFKVTNPDVSTGIKFSMTQIDCTHTKGGLCIDSVLILPKECAKEVIGSQ”, the “soluble on expression in E. coli” value was “soluble”. In the case of “MHGLQDDPDLQALLKGSQLLKVKSSSWRRERFYKLQEDCKTIWQESRKVMRSPESQLFSIEDIQEVRMGHRTEGLEKFARDIPEDRCFSIVFKDQRNTLDLIAPSPADAQHWVQGLRKIIHHSGSMDQRQK”, the “soluble on expression in E. coli” value is reported as “soluble”. For “MSAEAVIENRDYTLMIDKSSSMATADDPNGPTRWEIAQASTIALAKKCEEIDSDGITVYLFSGRFRRYDNVTAEKVAYIYANNEPMGRTDLAGALKDGLDNFFQRRQAGQTKPNGETFLIITDGEPTDRKAVIRLILEASQKIDRDEELAISLIQVGRDKKATAFFQALDDQLQAAGAKFDIVDTVTMEDMQGMSLSDVLLKAITDLEHHHHHH”, the “soluble on expression in E. coli” value was “not soluble”. For “MSLKLLIFEYATASGIDDPEIFLEGRSMLEALLTDFRDFDVEFLLSERFADMDIGAGFRPSIIGDLDEWLQENLEGFDACIFIAAEEGMELYRLTRIVEESGVLLLGSSGDAVRTCSDKRLTYRALDGRVPLIGTYEPEEIVDVPSRLIVKPADGVACQGIRILEPGDEPDLSGDMIIQDFIEGESVSVSLLSNGEKALPLSLNRQDIIMAGSELEYNGGSAPVDHEMREDAFTVARRAVESITGLRGYVGVDLILADEPYVVEINSRITTPYIGLRRVTEANLGHLILESVLGRLPSGVKFNGTASFRKGIDGMVVEVTEGFRGYEGHHHHHH”, the “soluble on expression in E. coli” value was “soluble”. With “CGIVGAIAQRDVAEILLEGLRRLEYRGYDSAGLAVVDAEGHMTRLRRLGKVQMLAQAAEEHPLHGGTGIAHTRWATHGEPSEVNAHPHVSEHIVVVHNGIIENHEPLREELKARGYTFVSETDTEVIAHLVNWELKQGGTLREAVLRAIPQLRGAYGTVIMDSRHPDTLLAARSGSPLVIGLGMGENFIASDQLALLPVTRRFIFLEEGDIAEITRRSVNIFDKTGAEVKRQDIESNLQYDAGDKGIYRHYMQKEIYEQPNAIKNTLTGRISHGQVDLSELGPNADELLSKVEHIQILACGTSYNSGMVSRYWFESLAGIPCDVEIASEFRYRKSAVRRNSLMITLSQSGETADTLAGLRLSKELGYLGSLAICNVPGSSLVRESDLALMTNAGTEIGVASTKAFTTQLTVLLMLVAKLSKLKGLDASIEHDIVHGLQALPSRIEQMLSQDKRIEALAEDFSDKHHALFLGRGDQYPIALEGALKLKEISYIHAEAYAAGELKHGPLALIDADMPVIVVAPNNELLEKLKSNIEEVRARGGQLYVFADQDAGFVSSDNMHIIEMPHVEEVIAPIFYTVPLQLLAYHVALIKGTDVDQPRNLAKSVTVE” the “soluble on expression in E. coli” value was “soluble”. With “METPQTGYQVKTYNVPVKRYCQTLDLRDSPELIAEYRKRHSQAEVWPEILAGIREVGILEMEIYILGTRLFMIVETPVDFDWDTAMARLNTLPRQQEWEEYMSILQQAAPGMSSAEKWIPMERMFHLYNT” the “soluble on expression in E. coli” value was “not soluble”. In the case of “MLSIIIPVYNEKGNILELTSRIKSALKNNEYEIVFVDDSTDETPKIIESLALKYNNIRLKHRKGKKGLSSAVIDGFKLARGDVLSVMDGDLQHPPEMLESMLFQMKKDTDIVICSRFVLGGKEEGLNIFRKFASFIARLIGKIFLKPLRKISDPTAGFFMLKRKVIKNRDLRAIGWKILIEILVMGDYKRVVELPYSFKRRKHEKSKFTISVQGQYLKQIVSLFIRSKKYNIKLEHHHHHH”, the “soluble on expression in E. coli” value is reported as “soluble”. For “MRRSLVVAVMAIMPMVGLANQNSRPDIQVNVPPEVFSTRGQSSQPCIQCCVYQDQNYSEGAVIKVEGVVLQCQRDEKTISTNPLVWRRVKPLEHHHHHH”, the “soluble on expression in E. coli” value was “not soluble”.
